What was measured:
[1] = target: HuR (ELAV-like protein 1) (UniProt P70372 1-326); assay: EMSA; HuR alone; 100 mM Tris-HCl pH 7.5, 7.5 mM KCl, 25 mM MgCl2, 375 mM NaCl, 12.5% glycerol, 5 mM DTT, 30 C 30 min (as printed, possibly 5x buffer); 6% native PAGE at 4 C; settings: protein: recombinant
Chain of HuR (ELAV-like protein 1) (P70372 whole entry): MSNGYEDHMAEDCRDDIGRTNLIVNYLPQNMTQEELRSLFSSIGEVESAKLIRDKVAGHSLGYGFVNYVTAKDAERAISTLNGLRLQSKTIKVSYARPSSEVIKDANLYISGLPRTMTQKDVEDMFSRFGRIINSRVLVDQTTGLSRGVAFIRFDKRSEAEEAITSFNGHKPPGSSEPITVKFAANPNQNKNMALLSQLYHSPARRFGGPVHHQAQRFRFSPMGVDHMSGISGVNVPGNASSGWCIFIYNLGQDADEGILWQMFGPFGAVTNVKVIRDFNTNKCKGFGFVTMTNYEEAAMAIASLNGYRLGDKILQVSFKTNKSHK

[2] = target: HuR (ELAV-like protein 1);Msi2 (Musashi 2) (mouse?;mouse?, UniProt P70372;Q920Q6 1-326;1-346, |); assay: EMSA; HuR and Msi2 together, strong cooperative binding; 100 mM Tris-HCl pH 7.5, 7.5 mM KCl, 25 mM MgCl2, 375 mM NaCl, 12.5% glycerol, 5 mM DTT, 30 C 30 min (as printed, possibly 5x buffer); 6% native PAGE at 4 C; settings: protein: recombinant;recombinant; tags:

Chain of HuR (ELAV-like protein 1);Msi2 (Musashi 2) (P70372 whole entry, chain 1 of 2): as the sequence (P70372 whole entry) above
Chain of HuR (ELAV-like protein 1);Msi2 (Musashi 2) (Q920Q6 whole entry, chain 2 of 2): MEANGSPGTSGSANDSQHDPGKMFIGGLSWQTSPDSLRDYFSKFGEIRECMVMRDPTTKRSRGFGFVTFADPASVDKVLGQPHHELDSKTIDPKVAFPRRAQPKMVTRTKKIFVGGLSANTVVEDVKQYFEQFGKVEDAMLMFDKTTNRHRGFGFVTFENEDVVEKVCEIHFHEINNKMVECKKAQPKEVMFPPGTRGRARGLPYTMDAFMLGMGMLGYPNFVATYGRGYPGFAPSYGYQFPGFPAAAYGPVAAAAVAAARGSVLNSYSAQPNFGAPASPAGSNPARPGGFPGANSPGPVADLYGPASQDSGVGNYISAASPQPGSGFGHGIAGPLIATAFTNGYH

Binder: UAAUUCGUACUUUUUUUUUCUUUUCUUUUAUAGUGUGAA (ssRNA) [WT Flanking probe]
- binding result [1]: binds
- binding result [2]: binds

— article PMC8818652, “Msi2‐mediated MiR7a‐1 processing repression promotes myogenesis”
